In one experiment the test system is nuclear MEF2. Nature of the experiment: MEF2 luciferase reporter assay. Particulars: co-transfected with MEF2 luciferase reporter. The experiment is classed as cell-based. From the text: Control indicates the group co-tranfected with control vector.
MEF2 luciferase reporter assay was done as described Wang et al., J Biol Chem, 2005, 280:16705-16713. Briefly, cells were transiently transfected with various constructs with MEF2 luciferase reporter plasmid (WT, reporter with wild type MEF2 DNA binding sites; mt, reporter with the MEF2 DNA binding sites mutated) using Lipofectimane 2000 (Invitrogen) following procedures provided by the manufacturer. A β-galactosidase expression plasmid was used to determine the efficiency in each transfection. The total amount of DNA for each transfection was kept constant by using control vectors. Cell lysates were analyzed for luciferase and β-galactosidase activity according to the manufacturer's instructions (Roche, cat. no. 11669893001).
(In general: A reporter such as luciferase makes a cellular process visible.)

Another experiment concerns ND6. Description: In organello de novo transcription assay. The experiment is classed as cell-based, mouse. Particulars: mitochondria isolated from SN4741 cells infected with lentivirus for 24 hour. From the text:
(A) Mitochondria-targeting MEF2D (Mt2D) and mitochondria-targeting dominant-negative MEF2D (Mt2Ddn), which lacks the transactivation domain (TAD). […] Control indicates the control vector group. (C) Effects of Mt2D or Mt2Ddn on ND6 expression in SN4741 cells. Over-expression of Mt2Ddn in SN4741 cells reduced ND6 but not PPAR-γ coactivator 1 (PGC1) expression by western blotting (n=4, **p<0.01). Control indicates the control vector group. (D) Effects of over-expression of Mt2D or Mt2Ddn on mRNA levels of mitochondria encoded genes. […] Control indicates the control vector group. (E) Effects of Mt2D or Mt2Ddn on mtDNA L-strand transcription initiation in vitro (n=3; **P<0.01). A human mtDNA fragment containing mitochondrial L-strand promoter (LSP) and ND6 gene was used in the in vitro transcription assay. […] (F) Effects of Mt2D or Mt2Ddn on mtDNA de novo transcription in vivo (n=3; **P<0.01). Control (−) is without primers. Control (+) indicates the control vector group.
SN4741 cells were infected with Mt2D or Mt2Ddn lentiviruses for 24 hour. De novo transcription was measured in isolated mitochondria as described previously (46, 47). The mitochondrial fraction was suspended in transcription buffer containing 25 mM sucrose, 75 mM sorbitol, 100 mM KCl, 10 mM K2HPO4, 50 mM EDTA, 5 mM MgCl2, 1 mM ADP, 10 mM glutamate, 2.5 mM malate, and 10 mM Tris-HCl (pH7.4), with 1 mg of BSA per ml. […]

A further experiment deals with SN4741 cells. Nature of the experiment: Mitochondrial functional assays (ATP, H2O2, membrane potential). The experiment is classed as cell-based, mouse. Particulars: over-expression in SN4741 cells. From the text:
(A) Requirement of mitochondrial MEF2D for complex I activity. […] Control indicates the control vector group. (B) Over-expression of ND6 rescued complex I activity reduced by Mt2Ddn. Control indicates the control vector group. (C) Measurement of various complex activities. […] Control indicates the control vector group. (D) Effects of over-expression of Mt2D or Mt2Ddn on mitochondrial function. Mt2Ddn reduced cellular ATP level and elevated H2O2 production in SN4741 cells (n=4; *p<0.05; **P<0.01). Control indicates the control vector group.
Mitochondrial complex I activity was evaluated initially by blue native-polyacrylamide gel electrophoresis (BN-PAGE) and in-gel activity staining. This assay measures total complex I activity. Rotenone sensitive complex I activity and activities of other mitochondrial complexes were further measured by methods described by Antoni et al., J Biol Chem, 1998, 273:14210-14217. Briefly, parallel assays were performed to measure complex I activity at 340 nm using 2,3-dimethoxy-5-methyl-6-n-decyl-1,4-benzoquinone (DB) (50 μM) as acceptor and NADH (0.8 mM) as donor, in 50 mM Tris (pH 8.0) buffer supplemented with 5 mg/ml BSA either without or with the addition of 4 μM rotenone, which gave total and rotenone insensitive complex I activities, respectively. The difference in value between the two provided a quantified measure of the rotenone-sensitive activity. Mitochondrial membrane potential was detected using a kit (cat. no. 280002) from Stratagene following the procedures provided by the manufacturer. The fluorescent dye JC-1 (5,5′,6,6′-tetrachloro-1,1′,3,3′-tetraethylbenzimidazolyl carbocyanine iodide) stains mitochondria red in a membrane potential dependent manner. Briefly, cells were seeded in 96-well plates at 4×10^4 cells/well with 100 μl culture medium and incubated at 33° C. with 5% CO2. After treatment, 10 μl/well of premixed JC-1 staining solution was added, and the cells were incubated for an additional 30 min under the same conditions. After thorough washes, 100 μl assay buffer was added to each well. Fluorescence signal was detected with excitation and emission at 520 nm and 590 nm, respectively, on a multi-well plate reader (Bio-Tek). Cellular ATP and H202 were measured by Bioluminescent Somatic Cell ATP Assay Kit (Sigma) and Hydrogen Peroxide Assay Kit (Cayman), respectively.

A further experiment relates to TH+ neurons in SNpc. Nature of the experiment: MPTP mouse model of PD, TH immunohistochemistry in SNpc. Particulars: lentivirus injected into SNpc of mouse brain, then MPTP.

Experimental for TH+ neurons in SNpc: (B) Role of mitochondrial MEF2D-ND6 pathway in maintaining TH+ neurons in SNpc in a MPTP mouse model of PD. For each group, three mice received stereotactical injection of control vector (GFP) or Mt2Ddn lentivirus in SN. Two weeks later, mice were exposed to MPTP. After treatment for seven days, the survival of lentivirus-transduced TH+ neurons in SN was determined by immunohistochemistry (left panel). Quantitative analysis of nine mice from three independent experiments was shown at the bottom panel (scale bar, 30 μm; **P<0.01).

B1: Mt2Ddn: Mitochondria-targeting dominant-negative MEF2D: mouse MEF2D 1-131aa with mitochondria-targeting signal, lacks the transactivation domain (protein, UniProt Q63943 1-131, looked up, fragment)
chain: MGRKKIQIQRITDERNRQVTFTKRKFGLMKKAYELSVLCDCEIALIIFNHSNKLFQYASTDMDKVLLKYTEYNEPHESRTNADIIETLRKKGFNGCDSPEPDGEDSLEQSPLLEDKYRRASEELDGLFRRY
modifications: mitochondria-targeting signal added
Take B1: in the experiment with nuclear MEF2, the “nuclear MEF2 activity (MEF2 reporter)” value is given as “did not affect”. Moreover, in the experiment on ND6, the “de novo transcription of ND6” value is “reduced”. Further, in the experiment on SN4741 cells, the “cellular ATP level” value is recorded as “clear reduction” and the “hydrogen peroxide production by mitochondria” value is recorded as “significantly increased”. Further, the mitochondrial membrane potential result with SN4741 cells (JC-1) is reported as “did not significantly alter”. In addition, the “loss of TH signal in DA neurons in vivo” value in the experiment with TH+ neurons in SNpc is “significantly accelerates”.

The record behind these values is patent US20120149645A1, “COMPOSITIONS AND MODULATION OF MYOCYTE ENHANCER FACTOR 2 (MEF2)” (EMORY UNIVERSITY, priority 2010, published 2012).
